According to patent publication US10737082B2, “Methods for lymphatic delivery of active agents” (Sorrento Therapeutics, Inc., priority 2015, dated 2020):

What was measured:
[1] = Rate of blood serum absorption of Etanercept after delivery to the skin; type: in vivo; settings: administration to the skin compared with i.v., s.c., or i.d. methods, FIG. 13
[2] = In vivo near infrared imaging of lymphatic delivery of fluorescently tagged Etanercept after needle array administration to the skin; design: species or system rat; settings: needle array device placed dorsally on rats, FIG. 8 and 9
Description: The ability to deliver the protein therapeutic Etanercept directly to the lymphatic system via administration to the skin was tested. Etanercept was fluorescently tagged for in vivo visualization using near infrared light as previous described, see Sevick-Muraca et al., J. Clin Invest., 124 (3), 905-914 (2014), which is incorporated by reference herein for its teachings thereof. Etanercept was administered to the skin of rats by placing a delivery device comprising an array of needles dorsally on the rats.

[3] = Biodistribution of Etanercept across multiple tissue types following delivery to the skin; type: in vivo, rat; settings: delivery to the skin compared to traditional i.v., s.c., or i.d. methods, FIG. 10
Excerpt: The biodistribution of Etanercept across multiple tissues types following delivery was investigated.

[4] = Localization of Etanercept to inflamed tissues in hind limb arthritic rat model; type: in vivo; settings: administered to the skin compared to subcutaneous delivery, FIG. 11A and B
[5] = system: hind limb arthritic rat model; test: Reduction of swelling of inflamed tissues measured by ankle diameter; type: in vivo; settings: same 3 mg dosage, administration to the skin compared to subcutaneous injection, FIG. 12
Description: Furthermore, there was a 17% reduction in the swelling of these inflamed tissues after administration of the same 3 mg dosage of Etanercept as measured by ankle diameter (FIG. 12).

**Q.** For Etanercept, which “blood serum absorption rate” value [1] is on record?
**A.** Its value is “approximately the same”.

**Q.** What about the “lymphatic uptake and distribution after administration to the skin” value [2] of the same substance?
**A.** Its value is “uptake by the lymphatic vasculature and subsequent distribution to primary and secondary lymph node tissues”.

**Q.** And the “levels within the axillary and inguinal lymph nodes” value [3]?
**A.** Its value is “much higher levels”.

**Q.** What about the “levels localized to inflamed tissues” value [4] of the same substance?
**A.** Its value is “higher levels”.

**Q.** And the “reduction in the swelling of inflamed tissues (ankle diameter)” value [5]?
**A.** The value was 17%.
